Source: patent publication US20070134249A1 (GENITOPE, published 2007)

Columns and labels:
Test in all cases: ELISA
Design in all cases: key to grade: 0 = <0.5 OD, 1 = 0.5-1.0 OD, 4 = 1-4 OD
762 = target: T1, 762
T1 construct: H3-7 L3-10; also called PIN762

796 = target: T2, 796
T2 construct: H3-23 L3-25; also called PIN796

604 = target: T3, 604
T3 construct: H4-34 L2-8; also called PIN604

733 = target: T4, 733
T4 construct: H3-48 L2-14; also called PIN733

857 = target: T5, 857
T5 construct: H5-51 L2-14; also called PIN857

1056 = target: T6, 1056
T6 construct: H3-48 L2-14; also called PIN1056

662 = target: T7, 662
T7 construct: fully human Id protein; also called PIN662
T7 sequence (heavy, as listed by the source): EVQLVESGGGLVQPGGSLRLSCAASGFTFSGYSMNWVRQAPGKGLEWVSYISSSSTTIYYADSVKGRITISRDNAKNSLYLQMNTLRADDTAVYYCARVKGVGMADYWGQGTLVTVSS

Measured: grade

B1: mAb clone 4H11 (antibody, V domains shown)
VH: EVKLVESGGGLVKPGGSLKLSCAASGFAFSNYDMSWVRQTPEKRLEWVATIRSDDSYTYYPDSVKGRFTISRDNARNTLYLQMSSLRSEDTAFYYCARREGNYAMDYWGQGTSVTVSS
VL: DIQMTQSPASLSVSVGETVTITCRASENIYSYLAWYQQKKGKSPQLLVYAATNLGDGVPTRFSGSGSGTQYSLKINSLQSEDFGSYYCQHFWGNPLTFGAGTKLELKR
notes: Mouse hybridoma mAb
4: all assays above
